Measured values published in US20070167369A1, “Novel use of isolated polypeptide comprising four FAS-1 domains, EM1 domain and RGD motif” (KYUNGPOOK NATIONAL UNIVERSITY INDUSTRY-ACADEMIC COOPERATION …, priority 2004, published 2007).

Columns and labels:
caspase-3 = assay: Caspase-3 activity in HUVECs (Example 7-2); type: cell-based, human; details: control (PBS) at 24 hours about 250 AU
Protocol: With respect to the induction of endothelial cell apoptosis (active cell death) by the fas-1 domain, which had been confirmed in Example 7-1 above, the present inventors measured the activity of caspase-3, which is activated when apoptosis occurs, in the cells treated with the fas-1 domain.
HUVECs were spread onto a 100-mm plate (10 ml culture solution) with M199 medium containing 10% FBS, followed by incubation in a 37° C. incubator for 12 hours. After the incubation, the medium was removed from the plate, the cells were added with fresh medium containing 0.1% FBS and further incubated for 24 hours. The cell-containing medium was treated with 5 μM or 20 μM of the fas-1 domain (βig-h3 D-IV) prepared in Example 1. A control was treated with PBS buffer. At 12 hours and 24 hours after the treatment, the cells were harvested. The caspase-3 activity of the cells was measured with an EnzCheck Caspase-3 Assay Kit(#2) (Molecular Probe Co., Eugene, Oreg., USA). Moreover, to verify that measured values are attributed to caspase-3 activity, each of the samples was treated with DEVD-CHO (Molecular Probe Co., Eugene, Oreg., USA) as a caspase-3-specific inhibitor. The control was treated with DMSO.

pc/HEK293 cells = assay: Apoptosis by annexin V staining, pc/HEK293 control cells (Example 8); type: cell-based; details: annexin V FACS
Protocol: A control cell was transfected with a pcDNA3 vector containing no β3 cDNA or β5 cDNA fragment, and named “pc/HEK293”.
(§1) pc/HEK293 cells, β3/HEK293 cells and β5/HEK293 cells were stained with annexin V to identify an integrin that mediates the induction of endothelial cell apoptosis by the fas-1 domain. Each of the cells was suspended in medium at a density of 5×10^5 cells/ml, added to each well of 6-well plated and incubated at 37° C. overnight. Following this, a test was performed in the same manner as in Example 7-1 above.

β3/HEK293 cells = assay: Apoptosis by annexin V staining, β3/HEK293 cells expressing αvβ3 integrin (Example 8); type: cell-based; details: annexin V FACS
Protocol: To identify an integrin that mediates the induction of endothelial cell apoptosis by the fas-1 domain, the present inventors performed a test using HEK293 cells (β3/HEK293 and β5/HEK293) which had been transfected such as to express αvβ3 integrin or αvβ5 integrin.
For this purpose, a β3/HEK293 cell that expresses αvβ3 integrin was prepared in the following manner. In order to construct a human β3 integrin expression vector, RT-PCR using human placenta poly(A)^+ RNA as a template was first performed to produce 2.4-kb β3 cDNA (Chandrika, S. K. et al., J. Biol. Chem., 272:16390-16397, 1997). The amplified β3 cDNA was digested with HindIII/XbaI, and then cloned into a pcDNA3 vector (Invitrogen). The resulting vector was named “β3/pcDNA3”. Thereafter, 1 μg of the β3/pcDNA3 vector was introduced into HEK293 cells (ATCC, catalog No. CRL 1573) by lipofectamin (Gibco). As the vector contains a G418 selection marker, a stable transfected cell was screened using 1 mg/ml of G418. The cell transfected with the β3/pcDNA3 vector was named “β3/HEK293”.
as §1, with “Following this, a test was performed in the same manner as in Example 7-1 above.” left out

HUVECs = assay: Endothelial cell proliferation, MTT (Example 6); type: cell-based, human; details: 48 hours
Protocol: HUVECs were suspended in medium at a density of 3×10^4 cells/ml, and 0.1 ml of the cell suspension was added to each well of 96-well plate and incubated at 37° C. overnight. The cells were washed with PBS buffer, and then incubated at 37° C. for 24 hours in serum-free medium. Thereafter, 0.2% FBS-containing medium containing the indicated concentrations of the fas-1 domain (βig-h3 D-IV) prepared in Example 1 was added to each well of the plate and incubated at 37° C. for 48 hours. A control was added with 2% BSA instead of the fas-1 domain. 50 μl of 0.5 mg/ml thiazolyl blue (MTT; Sigma) solution was added to each well, and allowed to react at 37° C. for 4 hours. After the reaction, the medium was removed, and each well was added with DMSO and left to stand at room temperature for a few minutes. Thereafter, the absorbance was measured at 570 nm in a Bio-Rad model 550 microplate reader.

[1] = system: B16F10 tumor microvessels; assay: Intratumoral microvessel density, CD31 immunostaining (Example 15-2); type: in vivo, BALB/c nude mice; details: B16F10 tumors of treated mice
Protocol: To determine whether the reduced size of the indicated protein-treated tumors coincides with reduced neovascularization, the present inventors used six representative tumors to quantify the density of microvessels after immunostaining with CD31 antibody.
Concretly, intratumoral microvessel density (MVD) was analyzed on paraffin sections of B16F10 tumor using a rat anti-mouse CD31 monoclonal antibody (PharMingen, San Diego, Calif.). Immunoperoxidase staining was done using the Vectastain avidin-biotin complex Elite reagent kit (Vector Laboratories, Burlingame, Calif.). Sections were counterstained with Hematoxyline. MVD was assessed initially by scanning the tumor at low power, followed by identification of four areas at the tumor periphery containing the maximum number of discrete microvessels, and counting individual microvessels at a high power field (x200). Each group consisted of six or eight tumor tissue.

caspase-3 activity (caspase-3; 5 μM) | caspase-3 activity (caspase-3; 20 μM) | Molecule | induction of apoptosis of pc/HEK293 cells (pc/HEK293 cells) | induction of apoptosis of β3/HEK293 cells (β3/HEK293 cells) | inhibition of proliferation of endothelial cells (HUVECs) | CD31-positive microvessels in tumor (intratumoral microvessel density) [1]
300 AU | 600 AU | fas-1 domain: recombinant protein containing the fourth fas-1 domain of human βig-h3 (SEQ ID NO: 64) (protein, listed as Homo sapiens) MGTVMDVLKGDNRFSMLVAAIQSAGLTETLNREGVYTVFAPTNEAFRALPPRERSRLLGDAKELANILKYHIGDEILVSGGIGALVRLKSLQGDKLEVSLKNNVVSVNKEPVAEPDIMATNGVVHVITNVL | not induced | induced by the fas-1 domain in a dose-dependent manner | inhibited by fas-1 domain in a dose-dependent manner | 
 |  | truncated βig-h3: recombinant human βig-h3 with EMI domain, all four fas-1 domains and RGD motif; residues 68-653 of SEQ ID NO: 1 (SEQ ID NO: 66) (protein, listed as Homo sapiens) WYQRKICGKSTVISYECCPGYEKVPGEKGCPAALPLSNLYETLGVVGSTTTQLYTDRTEKLRPEMEGPGSFTIFAPSNEAWASLPAEVLDSLVSNVNIELLNALRYHMVGRRVLTDELKHGMTLTSMYQNSNIQIHHYPNGIVTVNCARLLKADHHATNGVVHLIDKVISTITNNIQQIIEIEDTFETLRAAVAASGLNTMLEGNGQYTLLAPTNEAFEKIPSETLNRILGDPEALRDLLNNHILKSAMCAEAIVAGLSVETLEGTTLEVGCSGDMLTINGKAIISNKDILATNGVIHYIDELLIPDSAKTLFELAAESDVSTAIDLFRQAGLGNHLSGSERLTLLAPLNSVFKDGTPPIDAHTRNLLRNHIIKDQLASKYLYHGQTLETLGGKKLRVFVYRNSLCIENSCIAAHDKRGRYGTLFTMDRVLTPPMGTVMDVLKGDNRFSMLVAAIQSAGLTETLNREGVYTVFAPTNEAFRALPPRERSRLLGDAKELANILKYHIGDEILVSGGIGALVRLKSLQGDKLEVSLKNNVVSVNKEPVAEPDIMATNGVVHVITNVLQPPANRPQERGDELADSALEI |  |  |  | decrease in CD31-positive microvessels
